Here are results for five substances from patent US20150297742A1.

In test [1] the target is epidermal growth factor receptor (EGFR) (human) (UniProt P00533). Briefly: 125I-labelled conjugate on A431 cells, against unmodified matuzumab.
Test [2] shares this target. In words: 125I-labelled conjugate on EGFR-positive A431 cells, 37 C, gamma counting (membrane bound plus internalized).

Substance “mAb-dMTS (matuzumab conjugated to dendritic tetravalent MTS) (antibody)” returned a fold of the binding percentage of the unmodified mAb in test [1] of 3 fold.
In test [1], “mAb-dTAT (matuzumab conjugated to dendritic tetravalent TAT (47-60)) (antibody)” had a fold of the binding percentage of the unmodified mAb of 3 fold.
Take “mAb-dPenetratin (matuzumab conjugated to dendritic tetravalent penetratin) (antibody)”: in test [1], the fold of the binding percentage of the unmodified mAb was 3 fold. Besides, the % of the applied dose bound (% of applied dose per 10^6 cells) in test [2] worked out at 68.
Take “mAb-dR9 (matuzumab conjugated to dendritic tetravalent R9) (antibody)”: the fold of the binding percentage of the unmodified mAb in test [1] was 4.2 fold. For the same substance, the % of the applied dose bound (% of applied dose per 10^6 cells) in test [2] amounted to 92.
With “mAb-dSynB1 (matuzumab conjugated to dendritic tetravalent SynB1) (antibody)”, the % of the applied dose bound (% of applied dose per 10^6 cells) in test [2] stood at 47.
